Measured values reported in the supplement of paper PMC12764529.
± gives the half width of the 95% confidence interval.

How the values were obtained:
[1] = folding stability dG unfold from trypsin proteolysis; higher = more stable
How it was run: (§1)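 Designed mini-proteins with no cysteine and under 80 residues were kept only if AlphaFold2 dimer inter-PAE was above 15. In a PA-tagged cDNA display construct, they were digested with trypsin and chymotrypsin and then sequenced. K50 was inferred by Bayesian fitting of counts, and unfolding free energy was derived per protease or combined against a sequence-predicted unfolded-state K50 and a shared folded-state K50.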

[2] = folding stability dG unfold from chymotrypsin proteolysis; higher = more stable
How it was run: as §1

[3] = folding stability dG unfold (combined trypsin and chymotrypsin); higher = more stable
How it was run: as §1

Row | Sequence | folding stability dG unfold [1] | folding stability dG unfold [2] | folding stability dG unfold [3]
1 | SAGGSAGGSDDTAEFEGPVNVTLTLDGKPVNINAWVTRLPPGWFRIVLPDGVIELPGGNLRVGSAGGSAGGS [r12_790_TrMRF] | 0.84 ± 0.039 kcal/mol | 1.31 ± 0.069 kcal/mol | 1.16 ± 0.051 kcal/mol
2 | SAGGSAGGSDFPVKILEVEFHPNGSITIVIQAPDGWYIKATFHVPPNGNVKMSIELIPDPDAISAGGSAGGS [r20_23_TrROS] | 3.36 ± 0.17 kcal/mol | 4 ± 0.15 kcal/mol | 3.85 ± 0.19 kcal/mol
3 | SAGGSAGGSDKIKELAKKLKIVKVEKKKDGKYILLVKDEKTGKLYEIEVDLKTNKVTIKELKPSAGGSAGGS [r12_944_TrROS_Hall] | 2.81 ± 0.26 kcal/mol | 4.31 ± 0.13 kcal/mol | 3.82 ± 0.39 kcal/mol
4 | SAGGSAGGSDKYVVVIRVVNKETKKVTTLVFEGLKTPEELKAAVEALLPPGVVKVEIRVVKLPSAGGSAGGS [r20_29_TrROS_Hall] | 2.89 ± 0.18 kcal/mol | 3.28 ± 0.12 kcal/mol | 3.18 ± 0.15 kcal/mol
5 | SAGGSAGGSDLPIKIKMEPIPPGMPPGQVYRMEIEIPNGWVIRYSFYFTGGKLEFEPMEIKPVSAGGSAGGS [r12_1049_TrROS] | 2.22 ± 0.19 kcal/mol | 3.58 ± 0.08 kcal/mol | 3.13 ± 0.28 kcal/mol
6 | SAGGSAGGSDPEFELVRVEVFPFPTATLVRAVARFPPTDEYVEVELVHFPVPDRVLLRVRLLPSAGGSAGGS [r12_14_TrMRF] | 3.07 ± 0.064 kcal/mol | 3.93 ± 0.071 kcal/mol | 3.58 ± 0.097 kcal/mol
7 | SAGGSAGGSDPSATISFSFPLPDGSTININITITDEGSGPRIEIDITVTDANNNTAPAKFTIDSAGGSAGGS [r12_33_TrMRF] | 1.58 ± 0.11 kcal/mol | 1.4 ± 0.14 kcal/mol | 1.65 ± 0.11 kcal/mol
8 | SAGGSAGGSDPTAPVITTVPFPSGAVLTITTYPDSVTITYPSPGTTYTVPASAPIPITYQPALSAGGSAGGS [r12_227_JUSTAS] | 0.674 ± 0.015 kcal/mol | 0.0869 ± 0.12 kcal/mol | 0.488 ± 0.067 kcal/mol
9 | SAGGSAGGSDPTPVVVEFPFSSEEEAEKKAKEAAEKLKAEGVDIKEVKIEYDPEKGTVTLTLGSAGGSAGGS [r20_155_JUSTAS] | 1.36 ± 0.043 kcal/mol | 1.07 ± 0.062 kcal/mol | 1.21 ± 0.11 kcal/mol
10 | SAGGSAGGSDVEDIIKKLKIPPGYRMRFPDGKSHKFNNLDDIRNLAEMGMPPDNIDKIQIQPYSAGGSAGGS [r12_430_TrROS] | -0.152 ± 0.22 kcal/mol | 0.09 ± 0.28 kcal/mol | 0.0517 ± 0.15 kcal/mol
11 | SAGGSAGGSEDKYIIRVEVLLPNKKRTYVLEEPEKGIEAFKKRLEKEYPDEPIVEVRIEVLPASAGGSAGGS [r12_429_TrMRF] | 0.874 ± 0.032 kcal/mol | 1.37 ± 0.11 kcal/mol | 1.19 ± 0.1 kcal/mol
12 | SAGGSAGGSEEKKIKIKIKIERDPENPNTYRITIEDEETGERYELEITVPPPKPKVFFFPKKKSAGGSAGGS [r12_985_TrROS_Hall] | 2.24 ± 0.023 kcal/mol | 2.19 ± 0.12 kcal/mol | 2.18 ± 0.17 kcal/mol
13 | SAGGSAGGSEKIIEELKKKFPGLKIDKIEITVKKKKITIELKPPPKVYLTKEELEKKGYKIEKSAGGSAGGS [r12_3_TrROS_Hall] | 1.33 ± 0.041 kcal/mol | 0.449 ± 0.33 kcal/mol | 0.87 ± 0.22 kcal/mol
14 | SAGGSAGGSEKKPPEVTVVIKLPKGTSLEELLAALPPGAKAEIVEVVKVDEEKNEVYVKIRLTSAGGSAGGS [r12_469_TrROS_Hall] | 2.26 ± 0.11 kcal/mol | 2.71 ± 0.04 kcal/mol | 2.61 ± 0.095 kcal/mol
